Assay results: publication PMC3393671

Biological target: ROP5 of T. gondii strain RH-YFP (isoforms not told apart), F2YGR7
Experiment: pull-down (quantitated Western blot)
Conditions: chain shown with the change; 25 µg protein/100 µl 1:1 bead suspension; RH-YFP strain T. gondii lysates; 3E2 antibody (anti-ROP5); GST signal subtracted; parent: est. 100; read off a plot

Sequence of ROP5 of T. gondii strain RH-YFP (isoforms not told apart), F2YGR7 (F2YGR7 25-549): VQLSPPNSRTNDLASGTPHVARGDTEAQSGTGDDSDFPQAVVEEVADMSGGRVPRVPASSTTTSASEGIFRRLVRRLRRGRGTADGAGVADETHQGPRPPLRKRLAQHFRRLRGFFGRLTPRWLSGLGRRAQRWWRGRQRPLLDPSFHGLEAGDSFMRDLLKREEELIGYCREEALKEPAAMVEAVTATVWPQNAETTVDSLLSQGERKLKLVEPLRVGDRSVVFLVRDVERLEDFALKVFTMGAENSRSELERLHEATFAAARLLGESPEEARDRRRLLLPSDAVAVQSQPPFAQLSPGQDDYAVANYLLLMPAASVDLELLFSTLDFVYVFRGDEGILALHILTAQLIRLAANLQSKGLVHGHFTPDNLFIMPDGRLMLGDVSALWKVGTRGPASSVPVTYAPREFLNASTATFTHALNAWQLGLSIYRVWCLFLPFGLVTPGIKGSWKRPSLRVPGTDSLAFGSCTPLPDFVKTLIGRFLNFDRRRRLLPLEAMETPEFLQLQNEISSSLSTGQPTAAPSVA

B1: GST-Irga6, Q9QZ85 T102D (protein)
chain: MGQLFSSPKSDENNDLPSSFTGYFKKFNTGRKIISQEILNLIELRMRKGNIQLTNSAISDALKEIDSSVLNVAVTGETGSGKSSFINTLRGIGNEEEGAAKDGVVEVTMERHPYKHPNIPNVVFWDLPGIGSTNFPPNTYLEKMKFYEYDFFIIISATRFKKNDIDIAKAISMMKKEFYFVRTKVDSDITNEADGKPQTFDKEKVLQDIRLNCVNTFRENGIAEPPIFLLSNKNVCHYDFPVLMDKLISDLPIYKRHNFMVSLPNITDSVIEKKRQFLKQRIWLEGFAADLVNIIPSLTFLLDSDLETLKKSMKFYRTVFGVDETSLQRLARDWEIEVDQVEAMIKSPAVFKPTDEETIQERLSRYIQEFCLANGYLLPKNSFLKEIFYLKYYFLDMVTEDAKTLLKEICL
For B1, which percent of parent (% of wild-type intensity) is on record?
The percent of parent (% of wild-type intensity) was 110.

B2: GST-Irga6, Q9QZ85 N191R (protein)
chain: MGQLFSSPKSDENNDLPSSFTGYFKKFNTGRKIISQEILNLIELRMRKGNIQLTNSAISDALKEIDSSVLNVAVTGETGSGKSSFINTLRGIGNEEEGAAKTGVVEVTMERHPYKHPNIPNVVFWDLPGIGSTNFPPNTYLEKMKFYEYDFFIIISATRFKKNDIDIAKAISMMKKEFYFVRTKVDSDITREADGKPQTFDKEKVLQDIRLNCVNTFRENGIAEPPIFLLSNKNVCHYDFPVLMDKLISDLPIYKRHNFMVSLPNITDSVIEKKRQFLKQRIWLEGFAADLVNIIPSLTFLLDSDLETLKKSMKFYRTVFGVDETSLQRLARDWEIEVDQVEAMIKSPAVFKPTDEETIQERLSRYIQEFCLANGYLLPKNSFLKEIFYLKYYFLDMVTEDAKTLLKEICL
B2 was tested. Which percent of parent (% of wild-type intensity) did it give?
Its percent of parent (% of wild-type intensity) is 30.

B3: GST-Irga6, Q9QZ85 K169E (protein)
chain: MGQLFSSPKSDENNDLPSSFTGYFKKFNTGRKIISQEILNLIELRMRKGNIQLTNSAISDALKEIDSSVLNVAVTGETGSGKSSFINTLRGIGNEEEGAAKTGVVEVTMERHPYKHPNIPNVVFWDLPGIGSTNFPPNTYLEKMKFYEYDFFIIISATRFKKNDIDIAEAISMMKKEFYFVRTKVDSDITNEADGKPQTFDKEKVLQDIRLNCVNTFRENGIAEPPIFLLSNKNVCHYDFPVLMDKLISDLPIYKRHNFMVSLPNITDSVIEKKRQFLKQRIWLEGFAADLVNIIPSLTFLLDSDLETLKKSMKFYRTVFGVDETSLQRLARDWEIEVDQVEAMIKSPAVFKPTDEETIQERLSRYIQEFCLANGYLLPKNSFLKEIFYLKYYFLDMVTEDAKTLLKEICL
For B3, which percent of parent (% of wild-type intensity) is on record?
Its percent of parent (% of wild-type intensity) is 22.

B4: GST-Irga6, Q9QZ85 C213R (protein)
chain: MGQLFSSPKSDENNDLPSSFTGYFKKFNTGRKIISQEILNLIELRMRKGNIQLTNSAISDALKEIDSSVLNVAVTGETGSGKSSFINTLRGIGNEEEGAAKTGVVEVTMERHPYKHPNIPNVVFWDLPGIGSTNFPPNTYLEKMKFYEYDFFIIISATRFKKNDIDIAKAISMMKKEFYFVRTKVDSDITNEADGKPQTFDKEKVLQDIRLNRVNTFRENGIAEPPIFLLSNKNVCHYDFPVLMDKLISDLPIYKRHNFMVSLPNITDSVIEKKRQFLKQRIWLEGFAADLVNIIPSLTFLLDSDLETLKKSMKFYRTVFGVDETSLQRLARDWEIEVDQVEAMIKSPAVFKPTDEETIQERLSRYIQEFCLANGYLLPKNSFLKEIFYLKYYFLDMVTEDAKTLLKEICL
How did the percent of parent (% of wild-type intensity) turn out when B4 was run?
The percent of parent (% of wild-type intensity) was 3.3.

B5: GST-Irga6, Q9QZ85 G103R (protein)
chain: MGQLFSSPKSDENNDLPSSFTGYFKKFNTGRKIISQEILNLIELRMRKGNIQLTNSAISDALKEIDSSVLNVAVTGETGSGKSSFINTLRGIGNEEEGAAKTRVVEVTMERHPYKHPNIPNVVFWDLPGIGSTNFPPNTYLEKMKFYEYDFFIIISATRFKKNDIDIAKAISMMKKEFYFVRTKVDSDITNEADGKPQTFDKEKVLQDIRLNCVNTFRENGIAEPPIFLLSNKNVCHYDFPVLMDKLISDLPIYKRHNFMVSLPNITDSVIEKKRQFLKQRIWLEGFAADLVNIIPSLTFLLDSDLETLKKSMKFYRTVFGVDETSLQRLARDWEIEVDQVEAMIKSPAVFKPTDEETIQERLSRYIQEFCLANGYLLPKNSFLKEIFYLKYYFLDMVTEDAKTLLKEICL
How did the percent of parent (% of wild-type intensity) turn out when B5 was run?
Its percent of parent (% of wild-type intensity) is 43.

B6: GST-Irga6, Q9QZ85 E142R (protein)
chain: MGQLFSSPKSDENNDLPSSFTGYFKKFNTGRKIISQEILNLIELRMRKGNIQLTNSAISDALKEIDSSVLNVAVTGETGSGKSSFINTLRGIGNEEEGAAKTGVVEVTMERHPYKHPNIPNVVFWDLPGIGSTNFPPNTYLRKMKFYEYDFFIIISATRFKKNDIDIAKAISMMKKEFYFVRTKVDSDITNEADGKPQTFDKEKVLQDIRLNCVNTFRENGIAEPPIFLLSNKNVCHYDFPVLMDKLISDLPIYKRHNFMVSLPNITDSVIEKKRQFLKQRIWLEGFAADLVNIIPSLTFLLDSDLETLKKSMKFYRTVFGVDETSLQRLARDWEIEVDQVEAMIKSPAVFKPTDEETIQERLSRYIQEFCLANGYLLPKNSFLKEIFYLKYYFLDMVTEDAKTLLKEICL
How did the percent of parent (% of wild-type intensity) turn out when B6 was run?
The percent of parent (% of wild-type intensity) was 73.

B7: GST-Irga6, Q9QZ85 Q198E (protein)
chain: MGQLFSSPKSDENNDLPSSFTGYFKKFNTGRKIISQEILNLIELRMRKGNIQLTNSAISDALKEIDSSVLNVAVTGETGSGKSSFINTLRGIGNEEEGAAKTGVVEVTMERHPYKHPNIPNVVFWDLPGIGSTNFPPNTYLEKMKFYEYDFFIIISATRFKKNDIDIAKAISMMKKEFYFVRTKVDSDITNEADGKPETFDKEKVLQDIRLNCVNTFRENGIAEPPIFLLSNKNVCHYDFPVLMDKLISDLPIYKRHNFMVSLPNITDSVIEKKRQFLKQRIWLEGFAADLVNIIPSLTFLLDSDLETLKKSMKFYRTVFGVDETSLQRLARDWEIEVDQVEAMIKSPAVFKPTDEETIQERLSRYIQEFCLANGYLLPKNSFLKEIFYLKYYFLDMVTEDAKTLLKEICL
B7 was tested. Which percent of parent (% of wild-type intensity) did it give?
Its percent of parent (% of wild-type intensity) is 32.

B8: GST-Irga6, Q9QZ85 K196D (protein)
chain: MGQLFSSPKSDENNDLPSSFTGYFKKFNTGRKIISQEILNLIELRMRKGNIQLTNSAISDALKEIDSSVLNVAVTGETGSGKSSFINTLRGIGNEEEGAAKTGVVEVTMERHPYKHPNIPNVVFWDLPGIGSTNFPPNTYLEKMKFYEYDFFIIISATRFKKNDIDIAKAISMMKKEFYFVRTKVDSDITNEADGDPQTFDKEKVLQDIRLNCVNTFRENGIAEPPIFLLSNKNVCHYDFPVLMDKLISDLPIYKRHNFMVSLPNITDSVIEKKRQFLKQRIWLEGFAADLVNIIPSLTFLLDSDLETLKKSMKFYRTVFGVDETSLQRLARDWEIEVDQVEAMIKSPAVFKPTDEETIQERLSRYIQEFCLANGYLLPKNSFLKEIFYLKYYFLDMVTEDAKTLLKEICL
How did the percent of parent (% of wild-type intensity) turn out when B8 was run?
Its percent of parent (% of wild-type intensity) is 1.8.

B9: GST-Irga6, Q9QZ85 T108D (protein)
chain: MGQLFSSPKSDENNDLPSSFTGYFKKFNTGRKIISQEILNLIELRMRKGNIQLTNSAISDALKEIDSSVLNVAVTGETGSGKSSFINTLRGIGNEEEGAAKTGVVEVDMERHPYKHPNIPNVVFWDLPGIGSTNFPPNTYLEKMKFYEYDFFIIISATRFKKNDIDIAKAISMMKKEFYFVRTKVDSDITNEADGKPQTFDKEKVLQDIRLNCVNTFRENGIAEPPIFLLSNKNVCHYDFPVLMDKLISDLPIYKRHNFMVSLPNITDSVIEKKRQFLKQRIWLEGFAADLVNIIPSLTFLLDSDLETLKKSMKFYRTVFGVDETSLQRLARDWEIEVDQVEAMIKSPAVFKPTDEETIQERLSRYIQEFCLANGYLLPKNSFLKEIFYLKYYFLDMVTEDAKTLLKEICL
Which percent of parent (% of wild-type intensity) does the source give for B9 here?
The percent of parent (% of wild-type intensity) was 77.

B10: GST-Irga6, Q9QZ85 G195R (protein)
chain: MGQLFSSPKSDENNDLPSSFTGYFKKFNTGRKIISQEILNLIELRMRKGNIQLTNSAISDALKEIDSSVLNVAVTGETGSGKSSFINTLRGIGNEEEGAAKTGVVEVTMERHPYKHPNIPNVVFWDLPGIGSTNFPPNTYLEKMKFYEYDFFIIISATRFKKNDIDIAKAISMMKKEFYFVRTKVDSDITNEADRKPQTFDKEKVLQDIRLNCVNTFRENGIAEPPIFLLSNKNVCHYDFPVLMDKLISDLPIYKRHNFMVSLPNITDSVIEKKRQFLKQRIWLEGFAADLVNIIPSLTFLLDSDLETLKKSMKFYRTVFGVDETSLQRLARDWEIEVDQVEAMIKSPAVFKPTDEETIQERLSRYIQEFCLANGYLLPKNSFLKEIFYLKYYFLDMVTEDAKTLLKEICL
With B10 as the binder, how does the percent of parent (% of wild-type intensity) read?
The percent of parent (% of wild-type intensity) was 6.5.

B11: GST-Irga6, Q9QZ85 N220R (protein)
chain: MGQLFSSPKSDENNDLPSSFTGYFKKFNTGRKIISQEILNLIELRMRKGNIQLTNSAISDALKEIDSSVLNVAVTGETGSGKSSFINTLRGIGNEEEGAAKTGVVEVTMERHPYKHPNIPNVVFWDLPGIGSTNFPPNTYLEKMKFYEYDFFIIISATRFKKNDIDIAKAISMMKKEFYFVRTKVDSDITNEADGKPQTFDKEKVLQDIRLNCVNTFRERGIAEPPIFLLSNKNVCHYDFPVLMDKLISDLPIYKRHNFMVSLPNITDSVIEKKRQFLKQRIWLEGFAADLVNIIPSLTFLLDSDLETLKKSMKFYRTVFGVDETSLQRLARDWEIEVDQVEAMIKSPAVFKPTDEETIQERLSRYIQEFCLANGYLLPKNSFLKEIFYLKYYFLDMVTEDAKTLLKEICL
With B11 as the binder, how does the percent of parent (% of wild-type intensity) read?
The percent of parent (% of wild-type intensity) was 20.

B12: GST-Irga6, Q9QZ85 V205R (protein)
chain: MGQLFSSPKSDENNDLPSSFTGYFKKFNTGRKIISQEILNLIELRMRKGNIQLTNSAISDALKEIDSSVLNVAVTGETGSGKSSFINTLRGIGNEEEGAAKTGVVEVTMERHPYKHPNIPNVVFWDLPGIGSTNFPPNTYLEKMKFYEYDFFIIISATRFKKNDIDIAKAISMMKKEFYFVRTKVDSDITNEADGKPQTFDKEKRLQDIRLNCVNTFRENGIAEPPIFLLSNKNVCHYDFPVLMDKLISDLPIYKRHNFMVSLPNITDSVIEKKRQFLKQRIWLEGFAADLVNIIPSLTFLLDSDLETLKKSMKFYRTVFGVDETSLQRLARDWEIEVDQVEAMIKSPAVFKPTDEETIQERLSRYIQEFCLANGYLLPKNSFLKEIFYLKYYFLDMVTEDAKTLLKEICL
With B12 as the binder, how does the percent of parent (% of wild-type intensity) read?
The percent of parent (% of wild-type intensity) was 10.
